The record followed here is PMC6996649, “Rational Engineered C-Acyltransferase Transforms Sterically Demanding Acyl Donors” (ACS Catalysis, 2019).

What all share (format): biochemical, Pseudomonas protegens
One data set relates to T1, CCCC(=O)Oc1ccccc1.
T1 construct: PhlABC multi-subunit acyltransferase from codon-harmonized construct, recombinant in E. coli, purified enzyme; with 2,4-diacetylphloroglucinol biosynthesis acyltransferase subunit PhlA; 2,4-diacetylphloroglucinol biosynthesis acyltransferase subunit PhlB
Nature of the data set: HPLC assay of resorcinol acylation. As to conditions: 10 mM resorcinol as acceptor, 100 mM imidazole, potassium phosphate pH 7.5, 35 °C. The text has this: (§1) HPLC assay of resorcinol acylation on PpATaseCH

The subject of another data set is T2, COCC(=O)Oc1ccccc1.
T2 construct: PhlABC multi-subunit acyltransferase from codon-harmonized construct, recombinant in E. coli, purified enzyme; with 2,4-diacetylphloroglucinol biosynthesis acyltransferase subunit PhlA; 2,4-diacetylphloroglucinol biosynthesis acyltransferase subunit PhlB
Nature of the data set: HPLC assay of resorcinol acylation. As to conditions: 10 mM resorcinol as acceptor, 100 mM imidazole, potassium phosphate pH 7.5, 35 °C.
From the text: as §1

In a further data set the test system is T3, CCCC(=O)c1c(O)cc(O)cc1O.
T3 construct: PhlABC multi-subunit acyltransferase from codon-harmonized construct, recombinant in E. coli, purified enzyme; with 2,4-diacetylphloroglucinol biosynthesis acyltransferase subunit PhlA; 2,4-diacetylphloroglucinol biosynthesis acyltransferase subunit PhlB
Nature of the data set: purified protein. As to conditions: disproportionation to 3a (DBPG), 100 mM potassium phosphate pH 7.5, 35 °C.

A further data set concerns T4, CC(=O)c1c(O)cc(O)cc1O.
T4 construct: PhlABC multi-subunit acyltransferase from codon-harmonized construct, recombinant in E. coli, purified enzyme; with 2,4-diacetylphloroglucinol biosynthesis acyltransferase subunit PhlA; 2,4-diacetylphloroglucinol biosynthesis acyltransferase subunit PhlB
Put plainly: purified protein. As to conditions: disproportionation to DAPG, 100 mM potassium phosphate pH 7.5, 35 °C.

Turning to “PpATaseCH (Pseudomonas protegens Pf-5; F148V)”, in the data set on CCCC(=O)Oc1ccccc1, the Km stood at 3200 ± 100 µM, the Vmax stood at 40 µM/min, the kcat was determined as 0.012 ± 0.002 s⁻¹ and the specificity constant (kcat/Km) stood at 3.7 ± 0.6 M⁻¹ s⁻¹. For the same substance, in the data set on COCC(=O)Oc1ccccc1, the Michaelis-Menten constant (Km) came out at 5000 ± 1000 µM, the Vmax stood at 580 µM/min, the kcat was 0.188 ± 0.016 s⁻¹ and the kcat/Km was determined as 38.7 ± 8.5 M⁻¹ s⁻¹. Moreover, in the data set with CCCC(=O)c1c(O)cc(O)cc1O, the Km was found to be 540 ± 70 µM, the Vmax amounted to 620 µM/min, the kcat came to 5.3 ± 0.6 s⁻¹ and the catalytic efficiency (kcat/Km) was 9900 ± 800 M⁻¹ s⁻¹. In the data set on CC(=O)c1c(O)cc(O)cc1O, the Michaelis-Menten constant (Km) worked out at 240 ± 90 µM, the maximal velocity (Vmax) amounted to 820 µM/min, the kcat amounted to 7.2 ± 1.9 s⁻¹ and the kcat/Km was determined as 31000 ± 4000 M⁻¹ s⁻¹.

The Km is the concentration of substrate that gives half-maximal velocity. For orientation: Vmax means the rate approached at saturating substrate. By kcat is commonly meant the maximal rate divided by the concentration of active sites. The term kcat/Km denotes the second-order rate constant that governs catalysis at low substrate concentration.
